Test results as given in US12180473B2, “Chimeric RNA-driven genomic rearrangement in mammalian cells” (priority 2018, dated 2024).
“Also recorded” adds a separate entry of the source.

How the values were obtained:
[1] = system: TMPRSS2-ERG fusion; assay type: cell-based, human
Method: (§1) DHT was added at the final concentration of 0.9 μM six hours post transfection. Following overnight incubation, cells were then treated with 4 μg/ml α-amanitin for various time periods (0, 2, 6, 12 and 24 hours). Cells were then revived in fresh medium containing 0.9 μM DHT without α-amanitin and RT-PCR was performed for either TMPRSS2-ERG or TMPRSS2-ETV1 fusion.

[2] = system: TMPRSS2-ETV1 fusion; assay type: cell-based, human
Method: as §1

[3] = system: TMPRSS2-ETV1 fusion; experiment: RT-PCR detection of induced TMPRSS2-ETV1 fusion transcript in LNCaP cells; assay type: cell-based, human; details: LNCaP, two-round nested PCR
Method: • 1st Round: Top down PCR with TMPRSS2 ex-1 F1 and ETV1 ex-6 R1 • Denaturation 94° C., 30 sec • Annealing * , 45 sec • Extension 72° C., 60 sec
The Denaturation, Annealing and Extension steps were performed 2 cycles. • 2 cycles at each temperature: 62° C., 61° C., 60° C. . . .
Long Range PCR for Detecting Genomic DNA Fusion Junction

[4] = system: TMPRSS2-ERG fusion; experiment: RT-PCR detection of induced endogenous TMPRSS2-ERG fusion transcript in LNCaP cells expressing input RNA; details: for induction of endogenous TMPRSS2-ERG fusion transcript (RT-PCR): LNCaP cells transfected with input RNA plasmid, DHT for 3 days
Method: (§2) LNCaP cells were cultured in this special medium for 24 hrs prior to plasmid transfection.
(§3) Transfection was performed using Turbofect transfection reagent (Thermo Scientific, #R0531) according to manufacturer's protocol. Briefly, 1 μg of a particular plasmid was first diluted in 100 μl of the serum-free DMEM followed by immediate mixing by pipetting. 4 μl of the transfection reagent was then added to the diluted DNA followed by mixing and incubation for 20 min. The DNA/transfection reagent mixture was then added drop wise to a well containing LNCaP cells in 1 ml medium.
(§4) For treating cultured cells, concentrated DHT stock was diluted as 10× working solutions (for example, for 0.9 μM final concentration, 10× is prepared as 9.0 μM) with the appropriate complete culture medium and used immediately. […] Six hrs post transfection, 111 μl of fresh 10× DHT working solutions was added to each well of 12-wells plate containing 1 ml medium and transfected cells.
(§5) Briefly, cells were suspended in 200 μl of PBS buffer and were then lysed with 400 μl of lysis buffer. The sample was then passed through the filter assembly resulting in the binding of the nucleic acids to the filter. The filter containing nucleic acids was then incubated with DNase I dissolved in DNase incubation buffer to degrade genomic and plasmid DNAs. The column was then rinsed with wash buffer and total RNA then eluted in a new tube for further analysis.
(§6) After the addition of dNTPs, the mixture was denatured at 65° C. for 5 minutes. This was followed by the addition of a master-mix containing 1× superscript buffer, 10 mM DTT, 5 mM Magnesium chloride, RNaseOUT and Superscript III reverse transcriptase. Reactions were carried out at 50° C. for 50 minutes and then terminated by incubation at 85° C. for 5 minutes. cDNA was then treated with RNase-H for 20 minutes at 37° C. to degrade RNA in DNA/RNA hybrid. 1 μl of cDNA was used as template for each subsequent PCR reaction.
(§7) The Denaturation, Annealing and Extension steps were performed 32 cycles for induced fusion RNA and 27 cycles for input RNA.

[5] = system: BCR-KCNQ2 fusion; experiment: Nested RT-PCR of induced BCR-KCNQ2 fusion transcript in 293T cells; assay type: cell-based, human; details: for induction of BCR-KCNQ2 fusion: 293T, 3 days
Excerpt: FIGS. 42A-42E. BCR-KCNQ2 fusion induced in 293T cells by chimeric RNAs utilizing/excluding the SINE element for three-way junction formation. FIG. 42A. Examples of chimeric RNA design using Short Interspersed Nuclear Element (SINE) commonly present in the human genome. The designed chimeric RNA forge a three-way junction that could be formed between two SINEs in genomic DNA (in the stem) and chimeric RNA (perpendicular and below the stem). Genomic DNA stems formed by DNA repeats such as SINE/SINE repeats may constitute stems over 300 nts in length. Short lines in gray regions represent base pairings. SINEs are in crimson. FIG. 42B. […] This chimeric RNA has GC content of 52%. FIG. 42B discloses the BCR targeting sequence as SEQ ID NO: 245, the KCNQ2 targeting sequence as SEQ ID NO: 246, and the chimeric sequence as SEQ ID NO: 247. FIG. 42C. Examples of chimeric RNA design targeting DNA sequences of BCR and KCNQ2 genes in the genome which form genomic stems using regions outside of known DNA repeats such as Short Interspersed Nuclear Element (SINE). SINEs are commonly present in the human genome are shown in solid boxes. The DNA stem could range from 10 bp to >100 bp with some mismatches. FIG. 42D. […] This chimeric RNA target intron regions and has GC content of 60.4%. FIG. 42D discloses the BCR targeting sequence as SEQ ID NO: 248, the KCNQ2 targeting sequence as SEQ ID NO: 249, and the chimeric sequence as SEQ ID NO: 250. FIG. 42E. BCR-KCNQ2 fusion can be induced by chimeric RNAs that form 3-way junction with genomic stems using SINE repeats (Set1A) or outside of SINE repeats (Set1B). 293T cells were transfected with chimeric RNA expression plasmid for 3 days and then harvested for nested RT-PCR.

[6] = system: TMPRSS2-ERG fusion
Method: as §2, §3, §4, §5, §6, §7

[7] = LNCaP, 4 μg/ml α-amanitin, 0.9 μM DHT

CC[C@H](C)[C@@H]1NC(=O)CNC(=O)[C@@H]2Cc3c([nH]c4cc(O)ccc34)[S+]([O-])C[C@@H](NC(=O)CNC1=O)C(=O)N[C@@H](CC(N)=O)C(=O)N1C[C@H](O)C[C@H]1C(=O)N[C@@H]([C@@H](C)[C@@H](O)CO)C(=O)N2 (stereo in doubt) [α-amanitin, reference compound]
effect of α-amanitin treatment on TMPRSS2-ERG induction by antisense input RNA ([1]; lane 1 vs. 5): reduced the induction by antisense input RNAs
effect of α-amanitin treatment on TMPRSS2-ETV1 induction by antisense input RNA ([2]; lane 11 vs. 15): reduced the induction by antisense input RNAs

B1: Sense-TMPRSS2-ETV1-A1: input RNA, SEQ ID NO: 42 (nucleic acid)
sense: TGTGCTCGCTTCGGCAGCACATATACTAACATTGGAACGATCCTGCAGCCAGTTGGTGGAAGAGAGTCCCCCGGGGTCCCCAAAGCTGGCTCCTAGTCTACTGAATCTAACTAAGACTTTAACTTGGAACGATTTACATAATGCGGCA
α-amanitin treatment time after which sense input RNA began to induce TMPRSS2-ETV1 fusion [2, 7]: 24 h
induction of TMPRSS2-ETV1 fusion transcript (RT-PCR) [3]: failed to induce fusion transcript

B2: Sense-2 Long: input RNA, SEQ ID NO: 3 (nucleic acid)
sense: TGTGCTCGCTTCGGCAGCACATATACTAACATTGGAACGATCCTGCAGGAGTAGGCGCGAGCTAAGCAGGAGGCGGAGGCGGAGGCGGAGGGCGAGGGGCGGGGAGCGCCGCCTGGAGCGCGGCAGGAAGCCTTATCAGTTGTGAGTGAGGACCAGTCGTTGTTTGAGTGTGCCTACGGAACGCCACACCTGGCTAAGACAGAGATGACCGCGTCCTCCTCCAGCGACTATGGACAGACTTCCAAGATGAGCCCACGCGTCCCTCAGCAGGATTGGCTGTCTCAACCCCCAGCCAGGGTCACCATCAAAATGGAATGTAACCCTAGCCAGGTGAATGGCTCAAGGAACTCTCCTGATGAATGCAGTGTGGCCAAAGGCGGGAAGATGGTGGGCAGCCCAGACACCGTTGGGATGAACTACGGCAGCTACATGGAGGAGAAGCACATGCCACCCCCAAACATGACCACGAACGAGCGCAGAGTTATCGTGCCAGCAGATCCTACGCTATGGAGTACAGACCATGTGCGGCAGTGGCTGGAGTGGGCGGTGAAAGAATATGGCCTTCCAGACGTCAACATCTTGTTATTCCAGAACATCGATGGGAAGGAACTGTGCAAGATGACCAAGGACGACTTCCAGAGGCTCACCCCCAGCTACAACGCCGACATCCTTCTCTCACATCTCCACTACCTCAGAGAGACTCCTCTTCCACATTTGACTTCAGATGATGTTGATAAAGCCTTA
induction of endogenous TMPRSS2-ERG fusion transcript (RT-PCR) [4]: failed to induce fusion transcripts

B3: SEQ ID NO: 247: chimeric RNA utilizing the SINE element to induce BCR-KCNQ2 fusion, GC content 52% (S1A 200-1 or S1A 200-2) (nucleic acid)
chain: AGCAGGGGGGGCGGTGTCCACACATCCTCACTACGCTGATTTGCCATTTGACTTACACAGTGCAACTCATGTGTTACCAGCCTTCACTGTTCTGACAGCT
modifications: listed as DNA, further chemistry not given here
induction of BCR-KCNQ2 fusion [5]: induce BCR-KCNQ2 fusion

B4: Sense-2: input RNA, SEQ ID NO: 2 (nucleic acid)
sense: TGTGCTCGCTTCGGCAGCACATATACTAACATTGGAACGATCCTGCAGGAGTAGGCGCGAGCTAAGCAGGAGGCGGAGGCGGAGGCGGAGGGCGAGGGGCGGGGAGCGCCGCCTGGAGCGCGGCAGGAAGCCTTATCAGTTGTGAGTGAGGACCAGTCGTTGTTTGAGTGTGCCTACGGAACGCCACACCTGGCTAAGACAGAGATGACCGCGTCCTCCTCCAGCGACTATGGACAGACTTCCAAGATGAGCCCACGCGTCCCTCAGCAGGATTGGCTGTCTCAACCCCCAGCCAGGGTCACCATCAAAATGGAATGTAACCCTAGCCAGGTGAATGGCTCAAG
induction of endogenous TMPRSS2-ERG fusion transcript (RT-PCR) [4]: failed to induce fusion transcripts

B5: Antisense-C2: input RNA, SEQ ID NO: 19 (nucleic acid)
antisense: TGTGCTCGCTTCGGCAGCACATATACTAACATTGGAACGATCCTGCAGTGAGCTCATGCTATTCCTATGACATAGATGAGCACTGGGTAGACCCCGTCCTGGTAACACTATTCATGCACTAACCAGCACTCCCAGTCCTCCTCCCCAAAGAGAAAAGGCGCACCGGTGCTCCCAG
induction of endogenous TMPRSS2-ERG fusion transcript (RT-PCR) [4]: complete loss of induction

B6: Antisense-2: input RNA, SEQ ID NO: 5 (nucleic acid)
antisense: TGTGCTCGCTTCGGCAGCACATATACTAACATTGGAACGATCCTGCAGCTTGAGCCATTCACCTGGCTAGGGTTACATTCCATATTGATGGTGACCCTGGCTGGGGGTTGAGACAGCCAATCCTGCTGAGGGACGCGTGGGCTCATCTTGGAAGTCTGTCCATAGTCGCTGGAGGAGGACGCGGTCATCTCTGTCTTAGCCAGGTGTGGCGTTCCGTAGGCACACTCAAACAACGACTGGTCCTCACTCACAACTGATAAGGCTTCCTGCCGCGCTCCAGGCGGCGCTCCCCGCCCCTCGCCCTCCGCCTCCGCCTCCGCCTCCTGCTTAGCTCGCGCCTACTC
induction with U6 promoter compared to CMV promoter [6]: more pronounced
induction of endogenous TMPRSS2-ERG fusion transcript (RT-PCR) [4]: induced a clear band of 721 bp; also recorded: capable of inducing the fusion transcript
Cell line(s) identified ([4]; fusion gene partners TMPRSS2-ERG, LNCaP): LNCaP

B7: Antisense-B3: input RNA, SEQ ID NO: 17 (nucleic acid)
antisense: TGTGCTCGCTTCGGCAGCACATATACTAACATTGGAACGATCCTGCAGTGGGGAGCATTTCCAGATGGAGAAACTGCAAGGAAAAGCATAGAAGTGGGGCCACCCCTCGTGAGCTGGGGAGGGCTCACCTGCCGCGCTCCAGGCGGCGCTCCCCGCCCCTCGCCCTCCGCCTCCG
induction of endogenous TMPRSS2-ERG fusion transcript (RT-PCR) [4]: complete loss of induction

B8: S1B 10-8: chimeric RNA, BCR-KCNQ2, GC content 60.4% (nucleic acid)
chain: CCAGGTGGAGCTGCCCATGCCTTCCCCGCAGGGCTGAGCCCACTCAGCCGTGAACCAAAGTCCACTAGTCCCATCAAAAGTGCTAACAGGAAGGGGGGATC
modifications: listed as DNA, further chemistry not given here
induction of BCR-KCNQ2 fusion [5]: induce BCR-KCNQ2 fusion in 293T cells
Cell line(s) identified ([5]; fusion gene partners BCR-KCNQ2, 293T): 293T

B9: Sense-5: input RNA, SEQ ID NO: 29 (nucleic acid)
sense: TGTGCTCGCTTCGGCAGCACATATACTAACATTGGAACGATCCTGCAGGAGTAGGCGCGAGCTTCCATCTCTCACTCCTGTCTGGCGGAGGGCGAGGGGCGGGGAGCGCCGCCTGGAGCGCGGCAGGTGAGCGGCGGATTGGCTGTCTCAACCCCCAGCCAGGGTCACCATCAAAATGGAATGTAACCCTAGCCAGGTGAATGGCTCAAG
induction of endogenous TMPRSS2-ERG fusion transcript (RT-PCR) [4]: fails to induce TMPRSS2-ERG gene fusion
α-amanitin treatment time after which sense input RNA began to induce TMPRSS2-ERG [1, 7]: 12 h
